What was measured:
[1] = target: the molecule itself; experiment: single molecule pull-down (SiMPull), photobleaching step counting; purified recombinant PCDH15/LHFPL5 complex captured by mAb 8D1; labelled in separate experiments with 39G7 Fab-GFP or anti-LHFPL5 Fab-GFP; bleaching steps counted
[2] = target: the molecule itself; experiment: single molecule pull-down (SiMPull), photobleaching step counting; native complexes from mouse cochlea supernatant captured by mAb 8D1; labelled with 39G7 Fab-GFP or anti-LHFPL5 Fab-GFP; bleaching steps counted

| Protein | stoichiometry N [1] | stoichiometry N [2] |
| --- | --- | --- |
| recombinant protocadherin-15 (PCDH15), Mus musculus, His-tagged construct co-expressed with LHFPL5 (natural protein, Synthesised by Genscript, cloned into pEG BacMam; also called recombinant PCDH15; His-tagged PCDH15; source: HEK293 tsa201 cells, BacMam co-infection with LHFPL5, purified as a complex (Strep-Tactin, TALON, SEC) in digitonin) not shown | 2 | – |
| native protocadherin-15 (PCDH15) from mouse cochlea or utricle (natural protein, protocadherin-15, mouse, endogenous in cochlea and utricle; also called native PCDH15; source: endogenous, cochlea or utricle of post-natal day 6 mice, detergent supernatant (1% C12M, 0.2% CHS)) not shown | – | 2 |
